Experimental data as given in patent US20230085439A1 (UNIVERSITY OF GEORGIA RESEARCH FOUNDATION, published 2023).
Where two headings read alike, the source gives them in different places.

Columns and labels:
hMPV B1 F [1] = biological target: T1, hMPV B1 F (human metapneumovirus); test: ELISA on coated antigen, mAb titrated; EC50 box, key 3
hMPV B2 F-GCN4 dFP 6R = hMPV B2 F-GCN4 dFP 6R (human metapneumovirus)
hMPV B2 F [2] = biological target: T2, hMPV B2 F (human metapneumovirus)
hMPV A2 F [3] = biological target: T3, hMPV A2 F (human metapneumovirus)
hMPV A1 F [4] = biological target: T4, hMPV A1 F (human metapneumovirus)
hMPV B1 F [5] = biological target: T1, hMPV B1 F
[6] = biological target: T5, monomeric hMPV B2 F protein treated with trypsin (human metapneumovirus); test: ELISA on coated antigen, mAb titrated; panel hMPV B2 F monomer (trypsin), key 1
hMPV B2 F [7] = biological target: T2, hMPV B2 F; test: ELISA on coated antigen, mAb titrated; EC50 box, key 4
hMPV A2 F [8] = biological target: T3, hMPV A2 F; test: ELISA on coated antigen, mAb titrated; EC50 box, key 2
[9] = biological target: T6, trimeric hMPV B2 F protein treated with trypsin (human metapneumovirus); test: ELISA on coated antigen, mAb titrated; panel hMPV B2 F trimer (trypsin), key 1
hMPV A1 F [10] = biological target: T4, hMPV A1 F; test: ELISA on coated antigen, mAb titrated; EC50 box, key 1
hMPV 130-BV = biological target: T7, hMPV 130-BV (human metapneumovirus); test: ELISA on coated antigen, mAb titrated; EC50 list entry 5 of 7 (marker of hMPV 130BV)
T7 construct: also called hMPV 130-BV F; hMPV F 130-BV

[11] = biological target: hMPV F protein of hMPV A2 strain CAN/97-83 (human metapneumovirus, UniProt Q6WB98 19-539); test: cell-based or functional assay
[12] = biological target: hMPV F protein of hMPV B2 strain TN/93-32 (human metapneumovirus); test: cell-based or functional assay
[13] = biological target: T5, monomeric hMPV B2 F protein treated …; test: ELISA on trypsin-treated monomeric and trimeric hMPV B2 F
[14] = biological target: T5, monomeric hMPV B2 F protein treated …; test: ELISA on coated antigen, mAb titrated; panel hMPV B2 F monomer (trypsin), key 2
[15] = biological target: T6, trimeric hMPV B2 F protein treated with …; test: ELISA on coated antigen, mAb titrated; panel hMPV B2 F trimer (trypsin), key 2

| Binder | EC50 (hMPV B1 F [1]) | EC50 (hMPV B2 F GCN4) | EC50 (hMPV B2 F-GCN4 dFP 6R) | EC50 (hMPV B2 F [2]) | EC50 (hMPV A2 F [3]) | EC50 (hMPV A1 F [4]) | EC50 (hMPV B1 F [5]) | EC50 [6] | EC50 (hMPV B2 F [7]) | EC50 (hMPV A2 F [8]) | EC50 [9] | EC50 (hMPV A1 F [10]) | EC50 (hMPV 130-BV) | 50% inhibitory concentration (IC50), plaque neutralization [11] | 50% inhibitory concentration (IC50), plaque neutralization [12] | fold EC50, monomeric against trimeric hMPV B2 F [13] | EC50 [14] | EC50 [15] | IC50, plaque neutralization [11] | IC50, plaque neutralization [12] |
| --- | --- | --- | --- | --- | --- | --- | --- | --- | --- | --- | --- | --- | --- | --- | --- | --- | --- | --- | --- | --- |
| MPV196 (antibody, V domains shown, also called mAb MPV196) VH: QVQLQQWGAGLLKPSETLSLTCAVYGGSFSGYSWTWIRQPPGKGLEWIGEINHSGSTNYNPSLKSRVTISIDTSRNQFSLKLISVTAADTAVYYCARGVRGGYNLWHFDVWGQGTLVTVSS VL: SYELSQSPSVSVSPGQTARITCSGDKLGNKYASWYQQKPGQSPVLVIYQDDKRPSGIPERFSGSNSGNTATLTIGGTQAMDEADYSCQAWDGRTAVVFGGGTKLTVL | 0.077 µg/mL | 0.18 µg/mL | 0.15 µg/mL | 0.44 µg/mL | 0.17 µg/mL | 0.27 µg/mL | 0.12 µg/mL | 0.091 µg/mL | 0.136 µg/mL | 0.204 µg/mL | 0.17 µg/mL | 0.15 µg/mL | 0.14 µg/mL |  |  |  |  |  |  |  |
| MPV458 (antibody, V domains shown, also called mAb MPV458; MPV458 IgG) VH: QGKLVESGGGVIQPGRSLRLSCAASGFDFSRYGLHWVRQAPGKGLEWVAVIVYAGSNKYYADSVKGRFTISKDNSKNTMHLQMSDLRTEDTAVYYCARDQAFDLWGQGTMVTVSS VL: DIQMTQSPASLSASVGDRVTITCQASQGISRSVNWYQQKPGKAPKLLIFDASHLERGVPSRFSGSGYGTDFTFTISSLQPEDIATYYCQQYDNLRISFGQGTRLEIK |  | 0.2 µg/mL | 0.37 µg/mL | 0.6 µg/mL | 0.39 µg/mL | 0.75 µg/mL | 0.39 µg/mL |  |  |  |  |  | 0.24 µg/mL | 0.033 µg/mL | 0.49 µg/mL | ~4 fold lower | 0.25 µg/mL | 0.9 µg/mL |  |  |
| MPE8 (antibody, V domains shown, also called mAb MPE8; MPE8 antibody) VH: EVQLVESGGGLVKPGGSLRLSCAASGFTFSSYSMNWVRQAPGKGLEWVSSISASSSYSDYADSAKGRFTISRDNAKTSLFLQMNSLRAEDTAIYFCARARATGYSSITPYFDIWGQGTLVTVSS VL: QSVVTQPPSVSGAPGQRVTISCTGSSSNIGAGYDVHWYQQLPGTAPKLLIYDNNNRPSGVPDRFSASKSGTSASLAITGLQAEDEADYYCQSYDRSLSGVFGTGTKVTVL |  | 4.7 µg/mL | 5.9 µg/mL | 36 µg/mL | 4.3 µg/mL | 14 µg/mL | 3.1 µg/mL |  |  |  |  |  | 1.8 µg/mL |  |  |  |  |  |  |  |
| MPV364 (antibody, V domains shown, also called mAb MPV364; hMPV364) VH: QVQLVQSGAEVKKPGASVKVSCKASGYTFTHDSIHWVRQAPGQRLEWMGWINVGNGDTKSSQKFQDRLTITRDTSANTAYMEVRSLKYEDTAMYFCARVDQYCIGGVCYGGKNWFDPWGQGTLVTVSS VL: SYELNQPPSVSVAPGQTAMITCGGYYVGVKSLHWYQQKAGQAPVLVVHDDSDRPSGIPERFSGSKSGDTATLIISRVEAGDEADYYCQVWDRDSDHPYVFGTGTTVTVL | 0.2 µg/mL |  |  |  |  |  |  |  |  | 0.44 µg/mL |  | 0.25 µg/mL |  |  |  |  |  |  | 0.008 µg/mL | 0.018 µg/mL |
| MPV314 (antibody, V domains shown, also called mAb MPV314) VH: QVQLVQSGGGVVQPGRSLRLSCAASGFSFSDYGMDWVRQAPGKGLEWVAVISYDGSNQYYADSVKGRFTVSRDNSKNTVYLQMNSLRAEDTAVYFCAKDESRRYYYSSGIHSHWGQGTLVTVSS VL: DIVMTQSPATLSVSPGERATLSCRASQSVSRNLAWYQQKPGQAPRLLIFGASTRATGIPARFSGSASGTEFTLTISSLQSEDFAVYYCHQYNYWPPGTFGQGTRLEIK | 0.039 µg/mL |  |  |  |  |  |  |  |  | 0.102 µg/mL |  | 0.096 µg/mL |  |  |  |  |  |  |  |  |
| MPV201 (antibody, V domains shown, also called mAb MPV201) VH: QVQLVQSGGGGVQPGRSLRLSCAASGFIFSDYGMHWVRQAPGKGLEWVAVISYDGSNQYYADSVKGRFTISRDNSRNTLYLQMNSLRVEDTAVYYCAKDQGRRYYYSSGYLDYWGQGTLVTVSS VL: not shown | 0.042 µg/mL |  |  |  |  |  |  |  | 0.089 µg/mL | 0.14 µg/mL |  | 0.104 µg/mL |  |  |  |  |  |  |  |  |
